The source of these data is patent US20170137818, “APTAMER INHIBITING BIOLOGICAL ACTIVITY OF AUTOTAXIN BY BINDING WITH AUTOTAXIN, AND USE THEREOF” (RIBOMIC INC., published 2017).

To fix the notation:
B1: SEQ 20 aptamer (ssDNA)
DNA: ACACTCACAGGCGCTGGGGTACGCTCGGAACCGAGGCAATTGGTCAGCGTGCATGGCCGCTAGT
B2: SEQ 24 aptamer (ssDNA)
DNA: ACACTCACAGGCGCTGGCGAGTCGGAACCGAGCCGATTGGTCACTCGCGTGCATGGCCGCTAGT
B3: SEQ 9 aptamer (ssDNA)
DNA: GTGGTCTAGCTGTACTCAGGCCGGAACCGGTGAAATTGGTCGCCTAATAAGCGAAATCCACAGTCAACGAGCTA
B4: SEQ 22 aptamer (ssDNA)
DNA: ACACTCACAGGCGCTGGCCGGAACCGTGCATATGGTCGCCAGCACATCGTGCATGGCCGCTAGT
B5: SEQ 6 aptamer (ssDNA)
DNA: GTGGTCTAGCTGTACTCGGAACCGTACTCAACGGTCAGTACCTTTGCGCCGCAGCAAGCCACAGTCAACGAGCTA
B6: SEQ 5 aptamer (ssDNA)
DNA: GTGGTCTAGCTGTACTCATGGACGGAACCAGAATACTTTTGGTCTCCATTGAGTACGCCACAGTCAACGAGCTA
B7: SEQ 4 aptamer (ssDNA)
DNA: GTGGTCTAGCTGTACTCTCCGGAACCAGAGCAATTTGGTCGAGCGCTATCGGATGGTCCACAGTCAACGAGCTA
B8: SEQ 21 aptamer (ssDNA)
DNA: ACACTCACAGGCGCTGGCCACCACTGCACCGGAACCGCGAATGTGGTCGTGCATGGCCGCTAGT
B9: SEQ 23 aptamer (ssDNA)
DNA: ACACTCACAGGCGCTGGCACGGACCGGAACCGGGACGCTCGGTCGACCGTGCATGGCCGCTAGT
B10: SEQ 10 aptamer (ssDNA)
DNA: GTGGTCTAGCTGTACTCGCCGGAACCGTACTATGGTCGCGTTGTATGACGCTTGTATCCACAGTCAACGAGCTA
B11: SEQ 25 aptamer (ssDNA)
DNA: ACACTCACAGGCGCTGGCGACGTCGGAACCGTGTACCATGGTCACGTCGTGCATGGCCGCTAGT

The first data set deals with autotaxin (ENPP2/NPP2) (Homo sapiens, UniProt Q13822 Q13822:36-863). Description: inhibition; NPP2 assay, 37 C.
Consider B1, for which half-maximal inhibition (IC50) required 37 nM. In other words, the double-digit nanomolar range.

In the case of B2, the IC50 (usually the concentration that gives 50% inhibition) came out at 32 nM. Still for that read-out and setting: the figure for CCTGGACGGAACCAGAATACTTTTGGTCTCCAGG (ssDNA) [SEQ 12 aptamer] is 12 nM; for B3 it is 36 nM; for GGGACGGAACCAGAATACTTTTGGTCTCCC (ssDNA) [SEQ 14 aptamer] it is 42 nM. B4 showed an IC50 of 30 nM. B5 showed a half-inhibitory concentration (IC50) of 20 nM. Compared with the last molecule, the IC50 is about 1.5-fold lower. Molecule GCTGGCCGGAACCGTGCATATGGTCGCCAGC (ssDNA) [SEQ 29 aptamer] displayed an IC50 of 11 nM. Same read-out and setting: the figure for TACGCTCGGAACCGAGGCAATTGGTCAGCGTG (ssDNA) [SEQ 27 aptamer] is 24 nM; for B6 it is 11 nM; for B7 it is 16 nM. As to B8, inhibition was half-maximal at 28 nM (IC50). For the molecule TGGACGGAACCAGAATACTTTTGGTCTCCA (ssDNA) [SEQ 13 aptamer], 110 nM corresponded to half-maximal inhibition (IC50). On the same count and under the same terms, under B9 stands 75 nM.

Molecule GTACTCATGGACGGAACCAGAATACTTTTGGTCTCCATTGAGTAC (ssDNA) [SEQ 11 aptamer] came in with a 50% inhibitory concentration (IC50) of 12 nM. The molecule CTGGACGGAACCAGAATACTTTTGGTCTCCAG (ssDNA) [SEQ 16 aptamer] had an IC50 of 18 nM. This IC50 lies about 1.5-fold higher than the previous one. Same read-out and setting: under B10 stands 21 nM; under B11, 31 nM.

The target in another data set is autotaxin (endogenous, human pooled serum) (Homo sapiens, UniProt Q13822 Q13822:36-863). Description: inhibition; LPA production in serum, 5.0 uM.
Take CCTGGACGGAACCAGAATACTTTTGGTCTCCAGG (ssDNA, 2'-OMe C1) [12(41)]: the activity was 85 % inhibition.
